Experimental findings from IntAct's records for PubMed 29892012 are described below.

B1: Liprin-alpha-1 (Homo sapiens), Q13136 (parent)
chain: MMCEVMPTISEAEGPPGGGGGHGSGSPSQPDADSHFEQLMVSMLEERDRLLDTLRETQETLALTQGKLHEVGHERDSLQRQLNTALPQEFAALTKELNVCREQLLEREEEIAELKAERNNTRLLLEHLECLVSRHERSLRMTVVKRQAQSPAGVSSEVEVLKALKSLFEHHKALDEKVRERLRVALERCSLLEEELGATHKELMILKEQNNQKKTLTDGVLDINHEQENTPSTSGKRSSDGSLSHEEDLAKVIELQEIISKQSREQSQMKERLASLSSHVTELEEDLDTARKDLIKSEEMNTKLQRDVREAMAQKEDMEERITTLEKRYLAAQREATSVHDLNDKLENEIANKDSMHRQTEDKNRQLQERLELAEQKLQQTLRKAETLPEVEAELAQRVAALSKAEERHGNIEERLRQMEAQLEEKNQELQRARQREKMNEEHNKRLSDTVDKLLSESNERLQLHLKERMAALEDKNSLLREVESAKKQLEETQHDKDQLVLNIEALRAELDHMRLRGASLHHGRPHLGSVPDFRFPMADGHTDSYSTSAVLRRPQKGRLAALRDEPSKVQTLNEQDWERAQQASVLANVAQAFESDADVSDGEDDRDTLLSSVDLLSPSGQADAHTLAMMLQEQLDAINKEIRLIQEEKENTEQRAEEIESRVGSGSLDNLGRFRSMSSIPPYPASSLASSSPPGSGRSTPRRIPHSPAREVDRLGVMTLLPPSREEVRDDKTTIKCETSPPSSPRALRLDRLHKGALHTVSHEDIRDIRNSTGSQDGPVSNPSSSNSSQDSLHKAPKKKGIKSSIGRLFGKKEKGRPGQTGKEALGQAGVSETDNSSQDALGLSKLGGQAEKNRKLQKKHELLEEARRQGLPFAQWDGPTVVVWLELWVGMPAWYVAACRANVKSGAIMSALSDTEIQREIGISNPLHRLKLRLAIQEIMSLTSPSAPPTSRTTLAYGDMNHEWIGNEWLPSLGLPQYRSYFMECLVDARMLDHLTKKDLRGQLKMVDSFHRNSFQCGIMCLRRLNYDRKELERKREESQSEIKDVLVWSNDRVIRWILSIGLKEYANNLIESGVHGALLALDETFDFSALALLLQIPTQNTQARAVLEREFNNLLVMGTDRRFDEDDDKSFRRAPSWRKKFRPKDIRGLAAGSAETLPANFRVTSSMSSPSMQPKKMQMDGNVSGTQRLDSATVRTYSC
B2: Ligand of Numb protein X 2 (Homo sapiens), Q8N448 (parent)
chain: MGTTSDEMVSVEQTSSSSLNPLCFECGQQHWTRENHLYNYQNEVDDDLVCHICLQPLLQPLDTPCGHTFCYKCLRNFLQEKDFCPLDRKRLHFKLCKKSSILVHKLLDKLLVLCPFSSVCKDVMQRCDLEAHLKNRCPGASHRRVALERRKTSRTQAEIENENGPTLLDPAGTLSPEADCLGTGAVPVERHLTSASLSTWSEEPGLDNPAFEESAGADTTQQPLSLPEGEITTIEIHRSNPYIQLGISIVGGNETPLINIVIQEVYRDGVIARDGRLLAGDQILQVNNYNISNVSHNYARAVLSQPCNTLHLTVLRERRFGNRAHNHSDSNSPREEIFQVALHKRDSGEQLGIKLVRRTDEPGVFILDLLEGGLAAQDGRLSSNDRVLAINGHDLKYGTPELAAQIIQASGERVNLTIARPGKPQPGNTIREAGNHSSSSQHHTPPPYYSRPSSHKDLTQCVTCQEKHITVKKEPHESLGMTVAGGRGSKSGELPIFVTSVPPHGCLARDGRIKRGDVLLNINGIDLTNLSHSEAVAMLKASAASPAVALKALEVQIVEEATQNAEEQPSTFSENEYDASWSPSWVMWLGLPSTLHSCHDIVLRRSYLGSWGFSIVGGYEENHTNQPFFIKTIVLGTPAYYDGRLKCGDMIVAVNGLSTVGMSHSALVPMLKEQRNKVTLTVICWPGSLV
partner: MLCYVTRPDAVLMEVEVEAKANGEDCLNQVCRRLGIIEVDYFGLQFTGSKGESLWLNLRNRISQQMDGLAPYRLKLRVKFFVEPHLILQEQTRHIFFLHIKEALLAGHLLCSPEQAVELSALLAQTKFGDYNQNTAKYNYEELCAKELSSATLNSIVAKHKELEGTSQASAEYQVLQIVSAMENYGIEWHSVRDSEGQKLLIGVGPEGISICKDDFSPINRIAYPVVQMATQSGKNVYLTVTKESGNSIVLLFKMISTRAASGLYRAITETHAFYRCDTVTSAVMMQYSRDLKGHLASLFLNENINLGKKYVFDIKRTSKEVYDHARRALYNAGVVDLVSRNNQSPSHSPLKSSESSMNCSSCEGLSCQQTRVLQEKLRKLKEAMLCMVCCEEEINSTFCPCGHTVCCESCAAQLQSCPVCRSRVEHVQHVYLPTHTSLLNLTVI
B3: Synaptotagmin-16 (Homo sapiens), Q17RD7 (parent)
chain: MVLAMASQDVQNFFQPFSSWISRVYEALQQAGDMLSASLVNISKQDSKLSDKLDQDLDNIQIQETYFEDEEQDNDWSQEDANSLFLEVDHFSCCNSDLQDSAQNSSPSLSQHAKDSCSTMSQWPNWASDDRKLPHVLSSIAEEEHHLEKQRSGLQHGFDSQLPGTLETVNGKKQVNSFGDDEELSTSSDSDEEVIKQFEISVSRSQSFRSVTSEKGKQTGLEQKPKFSRSLLTHGEDGTEVSACEDLDGASQRRYSENLSYGEDDHIPAHSQSPCERGDAKHHGTSHQESSVVQSLRRQSTEGSLEMETAFNSRGFEDSYATDSSSMWSPEEQDRTNLQVPSGVSEPISKCGDLDVIFEYRAASQKLTVTIVRAQGLPDKDRSGVNSWQVHVVLLPGKKHRGRTNIQRGPNPVFREKVTFAKLEPRDVAACAVRFRLYAARKMTRERMMGEKLFYLSHLHPEGEMKVTLVLEPRSNISSGGSPLSPSAVSHSDSTSSTQSLSHGGAPELLVGLSYNATTGRLSVEMIKGSHFRNLAVNRAPDTYGKLFLLNSVGQEMSRCKTSIRRGQPNPVYKETFVFQVALFQLSDVTLMISVYNRRTMKRKEMIGWIALGQNSSGEEEQDHWEEMKETKGQQICRWHTLLES
B4: Ribosome assembly protein METTL17, mitochondrial (Homo sapiens), Q9H7H0 (parent)
chain: MAAALKCLLTLGRWCPGLGVAPQARALAALVPGVTQVDNKSGFLQKRPHRQHPGILKLPHVRLPQALANGAQLLLLGSAGPTMENQVQTLTSYLWSRHLPVEPEELQRRARHLEKKFLENPDLSQTEEKLRGAVLHALRKTTYHWQELSYTEGLSLVYMAARLDGGFAAVSRAFHEIRARNPAFQPQTLMDFGSGTGSVTWAAHSIWGQSLREYMCVDRSAAMLVLAEKLLKGGSESGEPYIPGVFFRQFLPVSPKVQFDVVVSAFSLSELPSKADRTEVVQTLWRKTGHFLVLVENGTKAGHSLLMDARDLVLKGKEKSPLDPRPGFVFAPCPHELPCPQLTNLACSFSQAYHPIPFSWNKKPKEEKFSMVILARGSPEEAHRWPRITQPVLKRPRHVHCHLCCPDGHMQHAVLTARRHGRDLYRCARVSSWGDLLPVLTPSAFPPSTAQDPSES
partner: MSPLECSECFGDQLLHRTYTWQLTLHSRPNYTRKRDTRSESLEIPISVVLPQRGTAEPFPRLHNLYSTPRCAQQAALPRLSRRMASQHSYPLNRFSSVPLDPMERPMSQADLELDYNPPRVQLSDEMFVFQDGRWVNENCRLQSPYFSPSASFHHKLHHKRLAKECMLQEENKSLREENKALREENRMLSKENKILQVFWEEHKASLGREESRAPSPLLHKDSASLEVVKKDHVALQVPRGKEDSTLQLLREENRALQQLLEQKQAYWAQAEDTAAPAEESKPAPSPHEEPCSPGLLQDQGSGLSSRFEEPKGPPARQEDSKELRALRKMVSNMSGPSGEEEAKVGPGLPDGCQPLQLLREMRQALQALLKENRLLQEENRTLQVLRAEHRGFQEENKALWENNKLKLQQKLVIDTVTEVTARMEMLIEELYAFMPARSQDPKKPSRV
B5: Syntaxin-3 (Homo sapiens), Q13277 (parent)
chain: MKDRLEQLKAKQLTQDDDTDAVEIAIDNTAFMDEFFSEIEETRLNIDKISEHVEEAKKLYSIILSAPIPEPKTKDDLEQLTTEIKKRANNVRNKLKSMEKHIEEDEVRSSADLRIRKSQHSVLSRKFVEVMTKYNEAQVDFRERSKGRIQRQLEITGKKTTDEELEEMLESGNPAIFTSGIIDSQISKQALSEIEGRHKDIVRLESSIKELHDMFMDIAMLVENQGEMLDNIELNVMHTVDHVEKARDETKKAVKYQSQARKKLIIIIVLVVVLLGILALIIGLSVGLN
B6: E3 ubiquitin-protein ligase RNF31 (Homo sapiens), Q96EP0 (parent)
chain: MPGEEEERAFLVAREELASALRRDSGQAFSLEQLRPLLASSLPLAARYLQLDAARLVRCNAHGEPRNYLNTLSTALNILEKYGRNLLSPQRPRYWRGVKFNNPVFRSTVDAVQGGRDVLRLYGYTEEQPDGLSFPEGQEEPDEHQVATVTLEVLLLRTELSLLLQNTHPRQQALEQLLEDKVEDDMLQLSEFDPLLREIAPGPLTTPSVPGSTPGPCFLCGSAPGTLHCPSCKQALCPACDHLFHGHPSRAHHLRQTLPGVLQGTHLSPSLPASAQPRPQSTSLLALGDSSLSSPNPASAHLPWHCAACAMLNEPWAVLCVACDRPRGCKGLGLGTEGPQGTGGLEPDLARGRWACQSCTFENEAAAVLCSICERPRLAQPPSLVVDSRDAGICLQPLQQGDALLASAQSQVWYCIHCTFCNSSPGWVCVMCNRTSSPIPAQHAPRPYASSLEKGPPKPGPPRRLSAPLPSSCGDPEKQRQDKMREEGLQLVSMIREGEAAGACPEEIFSALQYSGTEVPLQWLRSELPYVLEMVAELAGQQDPGLGAFSCQEARRAWLDRHGNLDEAVEECVRTRRRKVQELQSLGFGPEEGSLQALFQHGGDVSRALTELQRQRLEPFRQRLWDSGPEPTPSWDGPDKQSLVRRLLAVYALPSWGRAELALSLLQETPRNYELGDVVEAVRHSQDRAFLRRLLAQECAVCGWALPHNRMQALTSCECTICPDCFRQHFTIALKEKHITDMVCPACGRPDLTDDTQLLSYFSTLDIQLRESLEPDAYALFHKKLTEGVLMRDPKFLWCAQCSFGFIYEREQLEATCPQCHQTFCVRCKRQWEEQHRGRSCEDFQNWKRMNDPEYQAQGLAMYLQENGIDCPKCKFSYALARGGCMHFHCTQCRHQFCSGCYNAFYAKNKCPEPNCRVKKSLHGHHPRDCLFYLRDWTALRLQKLLQDNNVMFNTEPPAGARAVPGGGCRVIEQKEVPNGLRDEACGKETPAGYAGLCQAHYKEYLVSLINAHSLDPATLYEVEELETATERYLHVRPQPLAGEDPPAYQARLLQKLTEEVPLGQSIPRRRK

The variants in one assay derive from B1. To be noted: with txlna_human TXLNA.
On to P389L, for which the “effect of a mutation on the interaction” value is “with no effect”.

Variants of B1 are the subject of a further assay. The settings on record: with 2a5d_human PPP2R5D.
With P389L, the “effect of a mutation on the interaction” value is “with no effect”.

A further assay covers variants of B1. The settings on record: with ccnh_human CCNH.
As for P389L, the “effect of a mutation on the interaction” value is “with no effect”.

The next assay covers variants of B1. To be noted: with 2a5d_human PPP2R5D. This is another data set of the same source.
Consider L330F, for which the “effect of a mutation on the interaction” value is “disrupting interaction strength”.

The variants in another assay derive from B1. To be noted: with ccnh_human CCNH. This is another data set of the same source.
Consider L330F, for which the “effect of a mutation on the interaction” value is “disrupting interaction strength”.

A further assay covers variants of B2. To be noted: with mylip_human MYLIP.
For the variant P669A, the “effect of a mutation on the interaction” value is “with no effect”.

The variants in a further assay derive from B3. The settings on record: with praf1_human RABAC1, Q9UI14.
Chain of praf1_human RABAC1, Q9UI14 (Q9UI14 whole entry): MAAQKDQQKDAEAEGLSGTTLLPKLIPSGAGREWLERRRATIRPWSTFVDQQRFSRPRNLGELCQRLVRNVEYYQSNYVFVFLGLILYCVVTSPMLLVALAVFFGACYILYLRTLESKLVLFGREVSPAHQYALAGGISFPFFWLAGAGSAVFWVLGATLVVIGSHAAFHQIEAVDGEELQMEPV
As for R441W, the “effect of a mutation on the interaction” value is on record as “with no effect”.

The next assay covers variants of B3. To be noted: with rtn4_human RTN4, Q9NQC3.
Chain of rtn4_human RTN4, Q9NQC3 (Q9NQC3 whole entry): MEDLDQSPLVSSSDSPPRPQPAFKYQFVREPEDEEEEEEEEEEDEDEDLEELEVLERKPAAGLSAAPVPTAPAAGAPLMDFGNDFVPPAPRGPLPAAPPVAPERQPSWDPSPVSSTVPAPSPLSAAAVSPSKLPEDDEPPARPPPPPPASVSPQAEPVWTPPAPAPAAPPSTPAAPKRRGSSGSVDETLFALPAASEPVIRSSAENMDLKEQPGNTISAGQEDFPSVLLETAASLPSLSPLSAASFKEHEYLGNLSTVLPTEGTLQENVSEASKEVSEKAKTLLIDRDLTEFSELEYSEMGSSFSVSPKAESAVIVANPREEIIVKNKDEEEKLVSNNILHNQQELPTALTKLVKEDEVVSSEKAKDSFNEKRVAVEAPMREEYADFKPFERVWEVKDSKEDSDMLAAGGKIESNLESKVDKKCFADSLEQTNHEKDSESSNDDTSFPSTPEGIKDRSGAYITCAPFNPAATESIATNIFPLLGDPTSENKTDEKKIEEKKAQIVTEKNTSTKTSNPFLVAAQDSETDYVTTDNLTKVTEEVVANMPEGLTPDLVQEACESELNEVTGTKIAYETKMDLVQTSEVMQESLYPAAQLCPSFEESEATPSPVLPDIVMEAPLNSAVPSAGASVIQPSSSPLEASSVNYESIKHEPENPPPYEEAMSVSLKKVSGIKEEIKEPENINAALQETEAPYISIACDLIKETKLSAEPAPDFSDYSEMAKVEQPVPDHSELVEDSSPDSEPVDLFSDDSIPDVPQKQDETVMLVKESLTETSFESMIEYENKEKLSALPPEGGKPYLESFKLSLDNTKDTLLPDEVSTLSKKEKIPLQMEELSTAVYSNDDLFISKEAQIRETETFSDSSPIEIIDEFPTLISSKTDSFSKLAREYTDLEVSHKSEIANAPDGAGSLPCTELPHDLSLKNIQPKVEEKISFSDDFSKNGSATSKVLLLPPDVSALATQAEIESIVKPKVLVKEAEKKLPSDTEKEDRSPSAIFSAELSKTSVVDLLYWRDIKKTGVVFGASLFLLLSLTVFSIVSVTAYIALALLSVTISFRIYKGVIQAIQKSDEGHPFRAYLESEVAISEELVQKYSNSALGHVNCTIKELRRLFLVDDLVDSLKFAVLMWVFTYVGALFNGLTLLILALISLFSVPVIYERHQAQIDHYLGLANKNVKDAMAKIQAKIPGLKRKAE
Consider R441W, for which the “effect of a mutation on the interaction” value is on record as “with no effect”.

In another assay the parent is B4. To be noted: with cby2_human CBY2, Q8NA61.
In the case of R212H, the “effect of a mutation on the interaction” value is listed as “with no effect”.

A further assay covers variants of B5. To be noted: with stx4_human STX4, Q12846.
Chain of stx4_human STX4, Q12846 (Q12846 whole entry): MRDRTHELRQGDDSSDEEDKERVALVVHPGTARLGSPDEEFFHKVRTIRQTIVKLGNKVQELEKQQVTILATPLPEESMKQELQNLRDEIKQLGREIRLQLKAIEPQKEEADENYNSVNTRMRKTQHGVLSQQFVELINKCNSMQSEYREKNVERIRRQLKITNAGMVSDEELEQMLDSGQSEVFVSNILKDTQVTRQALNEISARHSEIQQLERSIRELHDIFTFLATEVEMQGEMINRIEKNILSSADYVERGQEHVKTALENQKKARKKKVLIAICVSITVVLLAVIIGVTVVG
With K199E, the “effect of a mutation on the interaction” value is given as “with no effect”.

The next assay covers variants of B6. The settings on record: with hoil1_human RBCK1, Q9BYM8.
Chain of hoil1_human RBCK1, Q9BYM8 (Q9BYM8 whole entry): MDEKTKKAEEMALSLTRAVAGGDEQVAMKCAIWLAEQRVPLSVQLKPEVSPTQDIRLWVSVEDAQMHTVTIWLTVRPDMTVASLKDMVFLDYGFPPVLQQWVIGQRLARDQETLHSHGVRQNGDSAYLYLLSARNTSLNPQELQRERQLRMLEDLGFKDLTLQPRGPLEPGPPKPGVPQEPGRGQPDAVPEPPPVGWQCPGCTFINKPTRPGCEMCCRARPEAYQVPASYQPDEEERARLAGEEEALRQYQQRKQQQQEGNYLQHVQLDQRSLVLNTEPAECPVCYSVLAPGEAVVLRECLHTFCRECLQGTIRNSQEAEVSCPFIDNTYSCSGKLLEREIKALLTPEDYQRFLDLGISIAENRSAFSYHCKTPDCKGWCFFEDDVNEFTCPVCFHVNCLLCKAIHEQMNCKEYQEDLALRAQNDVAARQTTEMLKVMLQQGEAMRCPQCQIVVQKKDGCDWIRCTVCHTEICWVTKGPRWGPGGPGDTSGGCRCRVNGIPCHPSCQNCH
As to R646W, the “effect of a mutation on the interaction” value is “with no effect”.

In another assay the parent is B6. To be noted: with ccd24_human CCDC24, Q8N4L8.
Chain of ccd24_human CCDC24, Q8N4L8 (Q8N4L8 whole entry): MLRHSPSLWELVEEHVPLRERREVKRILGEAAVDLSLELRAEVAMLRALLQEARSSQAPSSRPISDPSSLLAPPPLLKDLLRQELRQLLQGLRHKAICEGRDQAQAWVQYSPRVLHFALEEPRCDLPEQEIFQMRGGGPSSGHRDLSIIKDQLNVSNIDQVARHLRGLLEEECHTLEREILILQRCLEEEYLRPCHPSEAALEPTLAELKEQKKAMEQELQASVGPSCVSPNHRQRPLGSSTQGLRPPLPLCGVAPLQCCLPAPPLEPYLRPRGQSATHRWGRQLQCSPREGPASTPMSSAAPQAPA
As for R646W, the “effect of a mutation on the interaction” value is given as “with no effect”.
